Common to all, as to format: cell-based
Assay [1] deals with whole CD4+ cells from a healthy donor. The assay can be described thus: Th17 polarizing cytokines: IL-17 secretion from human CD4+ cells (ELISA). The following applies: for induction of IL-17 secretion: compared with cytokines from insect cell or bacterial expression system, 5 days. The text has this: IL-17-producing CD4+ T cells (Th-17 cells) have been identified as a unique subset of Th cells that develop along a pathway that is distinct from the Th1, and Th2-cell differentiation pathways. This finding has provided exciting new insights into immunoregulation, host defense and the pathogenesis of autoimmune diseases. Recently it has been shown that IL1β, IL6 and IL23 are important in driving human Th17 differentiation. However, TGF-β1, which is important for the differentiation of murine Th17 cells, is reported to be not required, and even inhibits human Th17 differentiation (McGeachy & Cua (2008) Immunity 28:445, Chen & O'Shea (2008) Cytokines 41:71). In this study, whole […] cells isolated from a healthy donor were stimulated with 10 μg/mL plate bound anti-CD3 and 10 μg/ml soluble anti-CD28 in the presence of Th17 polarizing cytokines from the inventive human cell expression system and from an insect cell or bacterial expression system. After 5 days supernatants were harvested for measurement of IL-17 by ELISA.

The subject of assay [2] is naïve T cell (Th0). The assay can be described thus: Differentiation of naive T cell (Th0) to Th17 cells, flow cytometry. The following applies: compared with human platelet derived native TGF-β1 (positive control). The protocol:
(§1) FIG. 22: Efficient differentiation of Th17 cells with authentic cytokines expressed in human cells. Whole CD4+ T cells isolated from a healthy donor were stimulated with 2 μg/mL plate bound anti-CD3 and 1 μg/mL soluble anti-CD28 in the presence of Th17 polarizing cytokines, including a titration of IL-23. After 5 days, supernatants were harvested for measurement of IL-17 by ELISA. See (A)-(G). FIG. 22 (H) depicts flow cytometry analysis on Human Th17 Differentiation by Authentic human TGF-β1. See Example 17 below.

The subject of assay [3] is mouse splenocytes. The assay can be described thus: IL-23 activity: dose-dependent secretion of IL-17 from mouse splenocytes activated with PMA. The following applies: 10 ng/ml PMA.
Assay [4] relates to human CD4+ T cells. The assay can be described thus: IL-23 activity: IL-17 secretion from human CD4+ T cells (ELISA). On the procedure: (A) IL-23 activities determined by the dose-dependent secretion of IL-17 from mouse splenocytes activated with 10 ng/ml PMA. (B) IL-23 activities determined by the dose-dependent secretion of IL-17 from human CD4+ T cells stimulated with […] plate bound anti-CD3 and […] soluble anti-CD28 in the presence of Th17 polarizing cytokines.
as §1
IL-17-producing CD4+ T cells (Th17 cells) have been identified as a unique subset of T helper cells that develop along a pathway that is distinct from the Th1 and Th2-cell differentiation pathways. This finding has provided exciting new insights into immunoregulation, host defense and the pathogenesis of autoimmune diseases. Recently it has been shown that TGF-β1, […], IL-6 and IL-23 are important in driving human Th17 differentiation (Chen & O'Shea (2008) Cytokines 41:71). […] The activities were further assayed with human CD4+ cells which were isolated from a healthy donor and stimulated with 10 μg/ml plate bound anti-CD3 and 10 μg/ml soluble anti-CD28 in the presence of Th17 polarizing cytokines. After 5 days supernatants were harvested for measurement of IL-17 by ELISA.

For “authentic human TGF-β1: TGF-β1 from engineered human 293 cells, disulfide-linked dimer of 25 kD”, the “induction of IL-17 secretion” value in assay [1] was “effective in enhancing the effect”. Further, the Th17 cell polarization result in assay [1] (separate study, same condition) is “can effectively induce Th17 cell polarization”. Further, in assay [2], the “differentiation of Th0 to Th17 cells (IL-17 and INF-γ producing cells)” value was “matched human platelet derived native TGF-β1”.

B1: authentic human IL-23: IL-23 from engineered human HEK293 cells, disulfide-linked heterodimer of 55 kD (protein, UniProt Q9NPF7 20-189; P29460 23-328, looked up)
Interleukin-23 subunit alpha: RAVPGGSSPAWTQCQQLSQKLCTLAWSAHPLVGHMDLREEGDEETTNDVPHIQCGDGCDPQGLRDNSQFCLQRIHQGLIFYEKLLGSDIFTGEPSLLPDSPVGQLHASLLGLSQLLQPEGHHWETQQIPSLSPSQPWQRLLLRFKILRSLQAFVAVAARVFAHGAATLSP
Interleukin-12 subunit beta: IWELKKDVYVVELDWYPDAPGEMVVLTCDTPEEDGITWTLDQSSEVLGSGKTLTIQVKEFGDAGQYTCHKGGEVLSHSLLLLHKKEDGIWSTDILKDQKEPKNKTFLRCEAKNYSGRFTCWWLTTISTDLTFSVKSSRGSSDPQGVTCGAATLSAERVRGDNKEYEYSVECQEDSACPAAEESLPIEVMVDAVHKLKYENYTSSFFIRDIIKPDPPKNLQLKPLKNSRQVEVSWEYPDTWSTPHSYFSLTFCVQVQGKSKREKKDRVFTDKTSATVICRKNASISVRAQDRYYSSSWSEWASVPCS
Consider B1, for which the “activity relative to insect cell IL-23, IL-17 secretion from mouse splenocytes” value in assay [3] is reported as “ten fold more active”. Moreover, the “fold more potent than the cytokine produced from insect cells (FIG. 21 heading)” value in assay [4] (assay not specified in the heading) was determined as 500 fold. Further, the “concentration at which maximum induction of IL-17 secretion was achieved” value in assay [4] (human CD4+ cells, 5 days) came out at 0.1 ng/mL. Moreover, the “fold more potent for inducing IL-17 secretion than insect cell IL-23” value in assay [4] (human CD4+ cells, anti-CD3 and anti-CD28, Th17 polarizing cytokines, 5 days) was found to be 100 fold. Moreover, in assay [1], the “induction of IL-17 secretion” value is “significantly more effective”.
